{"source": "paper PMC7932109", "about": "(Science (New York, N.y.), 2021)", "molecular_target": "SARS-CoV-2 spike receptor binding domain (RBD), residues 319 to 541 (SARS-CoV-2, UniProt P0DTC2, biotinylated for SPR; DyLight 488 (NHS ester) for the ACE2-RBD binding assay; no label told for ELISA and crystals)", "test": "SPR", "details": "both partners purified"}
{"binder": "VHH U (VHH, also called nanobody U; source: E. coli WK6, periplasmic extract, purified (Ni-NTA, desalting or gel filtration)) VHH: QVQLVESGGGLVQPGGSLRLSCAASGFTLDYYAIGWFRQAPGKEREGVSCISSSGGSTHFADSVKGRFTISRDNAKNTVYLQMNSLIPEDTAVYYCAAQSGSYYWCGSDWHEYEYWGQGTQVTVSS", "values": [{"measurement": "Kd", "value": 21, "unit": "nM"}]}
{"binder": "VHH V (VHH, also called nanobody V; source: E. coli WK6, periplasmic extract, purified (Ni-NTA, desalting or gel filtration)) VHH: QVQLVETGGGLVQPGGSLRLSCAASGFTFSSYAMGWARQVPGKGLEWVSYIYSDGSTEYQDSVKGRFTISRDNAKSTVYLQMNSLKPEDTAVYYCATEGSLGGWGRDFGSWGQGTQVTVSS", "values": [{"measurement": "Kd", "value": 9, "unit": "nM"}]}
{"binder": "VHH W (VHH, also called nanobody W; source: E. coli WK6, periplasmic extract, purified (Ni-NTA, desalting or gel filtration)) VHH: QVQLVESGGGLVQPGGSLRLSCAASGFTLDYYAIGWFRQAPGKEREGVSCISSSGDSTHYVDSVKGRFTISRDNAKNTVYLQMNSLKPEDTAVYYCAAQSGSYYWCGSDWHEYDYRGQGTQVTVSS", "values": [{"measurement": "Kd", "value": 22, "unit": "nM"}]}
